Patent US20180186871A1

T1: murine IL-11 (mouse) (UniProt P47873)
T1 sequence (looked up): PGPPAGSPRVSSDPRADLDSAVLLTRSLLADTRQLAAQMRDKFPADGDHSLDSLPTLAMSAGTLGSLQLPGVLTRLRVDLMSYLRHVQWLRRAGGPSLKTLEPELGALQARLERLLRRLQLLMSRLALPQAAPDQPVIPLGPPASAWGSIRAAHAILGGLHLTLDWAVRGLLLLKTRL

B1: YU100-H02 (scFv)
scFv: QVQLQQSGGGVVQPGRSLRLSCAASGFTFSSYGMHWVRQAPGKGLEWVAVISYDGSNKYYADSVKGRFTISRDNSKNTLYLQMNSLRAEDTAVYYCARIMGYDYGDYDVVDYWGQGTLVTVSSGSASAPKLEEGEFSEARVQSALTQPRSVSRSPGQSVTISCTGTSSDVGTYNYVSWYQQHPGKAPKLMIYDVSKRPSGVPDRFSGSKSGNTASLTISGLQAEDEADYYCCSYAGFYTWVFGGGTKLTVL
B2: YU112-F05 (scFv)
scFv: EVQLVQSGGGVVQPGRSLRLSCAASGFTFGSYGMHWVRQAPGKGLEWVAVISYDGSNKYYADSVKGRFTISRDNSKNTLYLQMNSLRAEDTAVYYCAKIGATDPLDYWGQGTLVTVSSGSASAPKLEEGEFSEARVQSALTQPRSVSGSPGQSVTISCTGTSSDVGGYNYVSWYQQHPGKAPKLIIYDVNNRPSGVSNRFSASKSGNTASLTISGLQAEDEADYYCNSYTSGSTWVFGGGTKLTVL
B3: YU100-A11 (scFv)
scFv: EVQLQQSGGGVVQPGRSLRLSCAASGFTFSSYGMHWVRQAPGKGLEWVAVISYDGSNKYYADSVKGRFTISRDNSKNTLYLQMNSLRAEDTAVYYCAKIGATDPLDYWGQGTLVTVSSGSASAPKLEEGEFSEARVQSALTQPRSVSGSPGQSVTISCTGTSSDVGGYNYVSWYQQHPGKAPKLMIYDVSKRPSGVPDRFSGSKSGNTASLTISGLQAEDEADYYCCSYAGSYTWVFGGGTKLTVL
B4: YU100-E07 (scFv)
scFv: QVQLQESGGGVVQPGRSLRLSCAASGFTFSSYGMHWVRQAPGKGLEWVAVISYDGSNRYYADSVKGRFAISRDNSKNTLYLQMNSLRAEDTAVYYCAKIGATDPLDYWGQGTLVTVSSGSASAPKLEEGEFSEARVQSALTQPRSVSGSPGQSVTISCTGTSSDVGGYDYVSWYQQHPGKAPELMIYDVTKRPSGVADRFSGSKSGNTASLTISGLQAEDEADYYCCSYAGRYTWVFGGGTKLTVL

What follows are binders tested against T1, murine IL-11 (mouse) (assay: ELISA binding signal).

First: B1
Second: B2
The mIL11 - average signal of the first is lower: 0.188 for the first, 0.601 for the second.

Going from B3 to B4, the mIL11 - average signal falls from 0.372 to 0.247.
